{
  "source": "paper PMC8287830",
  "about": "“(S)-3-Hydroxybutyryl-CoA Dehydrogenase From the Autotrophic 3-Hydroxypropionate/4-Hydroxybutyrate Cycle in Nitrosopumilus maritimus” (Frontiers in Microbiology, 2021)",
  "proteins": {"B1": {"name": "(S)-3-hydroxybutyryl-CoA dehydrogenase Nmar_1028 (enzyme, Nitrosopumilus maritimus SCM1, UniProt A9A3J2 1-379, looked up)", "chain": "MAVKNITILGSGVMGHGIAQVSATAGYNVVLRDIEQGFLDKAMEKIRWSLDKLVSKEKISKEEGDSIFGRITPVVDLKEAVKDAELVIEVVPEIMDLKKKVYAELDEVAAPEVIFASNTSTLPITEIANTTSRPDKFIGIHFFNPPQLMKLVEVIPGEKTSQEITDLTKDYVKSVNKQAVLCRKDVPGFIINRLFIPMVHEACYAKDRTGATLEEIDSAVKFNLGFPMGIFELADFTGMDVIHKATVEMHLRDKKVINPHPTVEKMFDEKKLGQKSGEGYYKYSDDKYERVELSQELAQKFNPIQLVANILNNAAWLVTNGASDIEEIEKAAQLGLGLKKPLFETAKEIGIKNIVDELNKLAEEHGEFYKPDPLLTSMQ", "notes": "(S)-3-hydroxybutyryl-CoA dehydrogenase Nmar_1028 of Nitrosopumilus maritimus strain SCM1; gene amplified from genomic DNA from the initiation codon to after the stop codon; predicted size 44.8 kDa; No removal of the His10 tag is described; also called HBDH; source: E. coli Rosetta 2 (DE3), purified (Ni-NTA)"}},
  "key": {"[1]": {"target": "the molecule itself", "assay": "SEC; Superdex 200 Increase (24 ml), 0.75 ml/min, 20 mM Tris-HCl pH 7.8, 150 mM KCl; native mass from a standard curve (apoferritin, alcohol dehydrogenase, BSA, carbonic anhydrase)"}, "[2]": {"substrate": "NC(=O)C1=CN([C@@H]2O[C@H](COP(=O)(O)OP(=O)(O)OC[C@H]3O[C@@H](n4cnc5c(N)ncnc54)[C@H](O)[C@@H]3O)[C@@H](O)[C@H]2O)C=CC1", "assay": "purified protein", "assay_type": "biochemical, Nitrosopumilus maritimus", "conditions": "0.2 mM acetoacetyl-CoA, 100 mM Tris-HCl pH 7.8, 30°C, reverse reaction, monomeric enzyme"}, "[3]": {"substrate": "NC(=O)c1ccc[n+]([C@@H]2O[C@H](COP(=O)(O)OP(=O)(O)OC[C@H]3O[C@@H](n4cnc5c(N)ncnc54)[C@H](OP(=O)(O)O)[C@@H]3O)[C@@H](O)[C@H]2O)c1", "assay": "purified protein", "assay_type": "biochemical, Nitrosopumilus maritimus", "conditions": "0.2 mM (S)-3-hydroxybutyryl-CoA, 100 mM Tris-HCl pH 7.8, 30°C, forward reaction, monomeric enzyme"}, "[4]": {"substrate": "C[C@H](O)CC(=O)SCCNC(=O)CCNC(=O)[C@H](O)C(C)(C)COP(=O)(O)OP(=O)(O)OC[C@H]1O[C@@H](n2cnc3c(N)ncnc32)[C@H](O)[C@@H]1OP(=O)(O)O", "assay": "purified protein", "assay_type": "biochemical, Nitrosopumilus maritimus", "conditions": "2 mM NAD, 100 mM Tris-HCl pH 7.8, 30°C, forward reaction, monomeric enzyme"}, "[5]": {"substrate": "NC(=O)c1ccc[n+]([C@@H]2O[C@H](COP(=O)(O)OP(=O)(O)OC[C@H]3O[C@@H](n4cnc5c(N)ncnc54)[C@H](O)[C@@H]3O)[C@@H](O)[C@H]2O)c1", "assay": "purified protein", "assay_type": "biochemical, Nitrosopumilus maritimus", "conditions": "0.2 mM (S)-3-hydroxybutyryl-CoA, 100 mM Tris-HCl pH 7.8, 30°C, forward reaction, monomeric enzyme"}, "[6]": {"substrate": "CC(=O)CC(=O)SCCNC(=O)CCNC(=O)[C@H](O)C(C)(C)COP(=O)(O)OP(=O)(O)OC[C@H]1O[C@@H](n2cnc3c(N)ncnc32)[C@H](O)[C@@H]1OP(=O)(O)O", "assay": "purified protein", "assay_type": "biochemical, Nitrosopumilus maritimus", "conditions": "0.5 mM NADH, 100 mM Tris-HCl pH 7.8, 30°C, reverse reaction, monomeric enzyme"}},
  "data": [
    {"protein": "B1", "values": [
      {"measurement": "stoichiometry N", "setting": "[1]", "value": 2},
      {"measurement": "Km", "setting": "[2]", "value": "16 ± 6", "unit": "µM"},
      {"measurement": "Vmax", "setting": "[2]", "value": 113, "unit": "µmol/min/mg"},
      {"measurement": "kcat/Km", "setting": "[2]", "value": "5.27e+06", "unit": "M⁻¹ s⁻¹"},
      {"measurement": "Km", "setting": "[3]", "value": "2920 ± 630", "unit": "µM"},
      {"measurement": "Vmax", "setting": "[3]", "value": 10.1, "unit": "µmol/min/mg"},
      {"measurement": "kcat/Km", "setting": "[3]", "value": 3000, "unit": "M⁻¹ s⁻¹"},
      {"measurement": "Km", "setting": "[4]", "value": "19 ± 2", "unit": "µM"},
      {"measurement": "Vmax", "setting": "[4]", "value": 98.6, "unit": "µmol/min/mg"},
      {"measurement": "kcat", "setting": "[4]", "value": 74, "unit": "s⁻¹"},
      {"measurement": "kcat/Km", "setting": "[4]", "value": "3.88e+06", "unit": "M⁻¹ s⁻¹"},
      {"measurement": "Km", "setting": "[5]", "value": "100 ± 20", "unit": "µM"},
      {"measurement": "Vmax", "setting": "[5]", "value": 84.4, "unit": "µmol/min/mg"},
      {"measurement": "kcat/Km", "setting": "[5]", "value": 630000, "unit": "M⁻¹ s⁻¹"},
      {"measurement": "Km", "setting": "[6]", "value": "26 ± 4", "unit": "µM"},
      {"measurement": "Vmax", "setting": "[6]", "value": 145, "unit": "µmol/min/mg"},
      {"measurement": "kcat", "setting": "[6]", "value": 108, "unit": "s⁻¹"},
      {"measurement": "kcat/Km", "setting": "[6]", "value": "4.04e+06", "unit": "M⁻¹ s⁻¹"}
    ]}
  ]
}
